In publication PMC3425544, “The S100A10 Subunit of the Annexin A2 Heterotetramer Facilitates L2-Mediated Human Papillomavirus Infection” (PLoS ONE, 2012):
Entries after “also recorded” stand apart in the source; their conditions may differ.

How the values were obtained:
[1] = tested on: HPV16 PsV infection of HeLa cells; settings: PsV infectivity, FBS present; ref [38]; cited from earlier work
Description: SLPI has shown anti-bacterial and anti-fungal activity aside from its noted anti-protease activity (reviewed in [68]). […] Concentrations in cervical mucosal fluids are commonly reported at 1 µg/ml, but are likely to be more concentrated at the cell surface. In addition, SLPI levels in cervical mucus have been measured midcycle as high as ...

[2] = tested on: HPV16 PsV infection of HeLa cells; assay: HPV16 PsV infection of HeLa cells (GFP, flow cytometry); assay type: cell-based, human; settings: presence of FBS during SLPI incubation and PsV infection; data not shown
Description: (§1) HeLa cells (ATCC, Manassas, VA) are human epithelial cells derived from cervical cancer, and were maintained in complete media (IMDM, 10% FBS, 1X PenStrep) at 37°C with 5% CO2 (Lonza, Walkersville, MD). HaCaT cells (Cell Lines Service, Eppelheim, Germany) are in vitro spontaneously transformed human keratinocytes derived from histologically normal skin [75] and were maintained in Defined Keratinocyte Serum-Free Media (KSFM) (Invitrogen, Carlsbad, CA) with manufacturer provided KSFM growth supplement (including insulin, EGF, and FGF) at 37°C with 5% CO2.
Wildtype HPV16 pseudovirions containing GFP reporter were produced by cotransfection of 293TT cells with plasmids encoding codon-optimized HPV16 L1 and L2 and a GFP reporter plasmid (pCIneoGFP) following published procedures. The infectious titer of PsV preparations (in infectious units/mL) was determined by flow cytometric analysis of 293TT cells treated with varying doses of PsV vector stock. […] Confirmation and quantitation of reporter plasmid DNA encapsidation was performed using quantitative real-time PCR following plasmid DNA isolation from pseudovirion preparations by phenol chloroform extraction and ethanol precipitation. L1 content was quantitated by Coomassie Blue staining next to BSA standards following SDS-PAGE. The infectious titer of L2 mutant PsV were determined on 293TT cells as described above for WT PsV. […]

[3] = tested on: A2t; assay: ELISA binding to immobilised A2t; set-up: species or system human; settings: 500 ng A2t coated, 400 ng PsV, H16.V5 or anti-SLPI detection
Description: For assays to determine accessibility of L2_108–120 epitope on capsid surface, 96-well Microlon ELISA plates (USA Scientific, Ocala, FL) were incubated with 500 ng of HPV16 L1 VLP, HPV16 L1L2 VLP or HPV16 PsV in 100 µL PBS overnight at 4°C. The plate was washed with PBST ([…]) and blocked with 200 µL of PBS containing 3% BSA for 2 h at RT. The plate was washed with PBST and incubated with 1∶1000 16L2.4B4 (anti-L2_108–120) or 1∶5000 H16.V5 (anti-L1) in PBST with 1% BSA for 2 h at RT. The plate was washed and incubated with 1∶5000 rabbit-anti-mouse HRP in PBST with 1% BSA for 1 h at RT. The plate was washed, and 100 µL of the HRP substrate (o-phenylenediamine) was added. The absorbance was measured at 490 nm with a Hidex Chameleon plate reader. In control experiments, no VLP or PsV were added, and stained with primary, secondary, or both antibodies and minimal absorbance was seen. For assays to determine in vitro binding capacity of HPV16 capsids to purified A2t protein, 500 ng of purified A2t was coated separately on ELISA plates overnight at 4°C. […] Bound PsV were detected with conformational anti-L1 H16.V5 antibody, followed by anti-mouse IgG HRP antibody conjugate. Bound SLPI was detected with goat anti-SLPI antibody, followed by anti-goat IgG HRP antibody conjugate and addition of substrate.

[4] = tested on: HSV; settings: ref [33]; cited from earlier work
Description: Nonetheless, the link between HSV and H ...

[5] = tested on: HPV16 PsV infection of HaCaT cells; assay: HPV16 PsV infection of HaCaT cells (GFP, flow cytometry); assay type: cell-based, human
Description: as §1
Wildtype HPV16 pseudovirions containing GFP reporter were produced by cotransfection of 293TT cells with plasmids encoding codon-optimized HPV16 L1 and L2 and a GFP reporter plasmid (pCIneoGFP) following published procedures. The infectious titer of PsV preparations (in infectious units/mL) was determined by flow cytometric analysis of 293TT cells treated with varying doses of PsV vector stock. Neutralization of PsV were validated in infection assays via pre-incubation with H16.V5 or H16.E70 prior to cellular exposure, and minimal infection rates of less than 1% were observed. To produce pseudovirions with a mutated L2 (108–126) region, site-directed mutagenesis was performed using overlapping mutated primers on the bicistronic packaging HPV16 pseudovirion plasmid p16sheLL as a template. Forward primer 5′-[…]-3′ and reverse primer 5′-[…]-3′ encoding the amino acid substitution of GGDD for LVEE in the L2 capsid region aa 108–111 were used with the QuikChange II XL Site-Directed Mutagenesis Kit (Stratagene, Cedar Creek, TX) according to manufacturer’s instructions. The entire L1 and L2 ORFs of the resulting plasmid were sequenced to confirm mutagenesis of the 108–111 aa L2 region and that no other unexpected mutations were introduced. HPV16 L1–L2(GGDD) PsV containing GFP reporter plasmid were produced as described above for wildtype HPV16 PsV. Confirmation and quantitation of reporter plasmid DNA encapsidation was performed using quantitative real-time PCR following plasmid DNA isolation from pseudovirion preparations by phenol chloroform extraction and ethanol precipitation. L1 content was quantitated by Coomassie Blue staining next to BSA standards following SDS-PAGE. The infectious titer of L2 mutant PsV were determined on 293TT cells as described above for WT PsV.
HaCaT cells seeded at 3×10^4 cells/well or HeLa cells seeded at 2×10^4 cells/well were incubated overnight in 24-well plates at 37°C. The cells were subsequently incubated with wildtype HPV16 PsV containing a pCIneo-GFP vector at an MOI 100 for HaCaT or MOI of 1 for HeLa. The MOIs were chosen for each cell type that achieved 15–25% GFP-positive cells. Infectivity was scored 48 h post infection by enumerating GFP+ cells by flow cytometry. […]

[6] = tested on: HIV-1; settings: macrophages; ref [34]; cited from earlier work
Description: A particular local immune event that has been well studied in the context of HPV infection is mucosal co-infection with herpes simplex virus (HSV). Historically, in the 1960s and 1970s, HSV-2 infection was thought to be a possible causative agent for cervical cancer, [31]. However, the role of HSV-2 in cervical cancer began to be questioned when HSV-2 DNA was not consistently found in cervical cancer tissues. Subsequently, HPV DNA was detected in the overwhelming majority of cervical cancer tissue and determined to be the causative agent. […] To test this hypothesis, the effect of SLPI and antibody inhibition of A2t on HPV16 infection of epithelial cel ...

B1: secretory leukocyte protease inhibitor (protein)
chain: SGKSFKAGVCPPKKSAQCLRYKKPECQSDWQCPGKKRCCPDTCGIKCLDPVDTPNPTRRKPGKCPVTYGQCLMLNPPNFCEMDGQCKRDLKCCMGMCGKSCVSPVKA
notes: endogenous annexin A2 ligand
**Q.** What does the source list for B1?
**A.** HPV16 infection of HeLa, SLPI in presence of FBS [1]: no reduction in HPV16 infection; PsV infection, presence of FBS [2]: no reduced infection; also recorded: eliminated the blocking effect of SLPI completely; binding to A2t (absorbance at 490 nm) [3]: significant binding; inhibition of HSV infection [4]: inhibit HSV infection; pseudo-infection, 25 µg/mL ([5]; 25 µg/mL SLPI vs negative and BSA controls, serum free): significant decrease in pseudo-infection; pseudo-infection, 50 µg/mL ([5]; 50 µg/mL SLPI vs negative and BSA controls, serum free): pseudo-infection further decreased; decrease in pseudo-infection ([5]; 25–50 µg/mL SLPI, 1 h at 4°C prior to PsV, serum free, vs untreated HaCaT cells, 48 h): 60–80%; SLPI inhibition of HPV16 infection ([5]; HaCaT cells, discussion): can inhibit HPV16 infection; inhibition of HIV-1 infection [6]: inhibit HIV-1 infection of macrophages; also recorded: inhibits the infection of HIV-1
